Experimental data reported in US20250361274A1, “PEPTIDE AND PEPTIDE-CONTAINING AGENT” (PEPTIDREAM INC., priority 2022, published 2025).
Square brackets hold non-standard residues; d marks the D form. Ends that are not written are not given here. NMePhe(3-Cl) = CN[C@@H](Cc1cccc(Cl)c1)C(=O)O; NMePhe(4-Cl) = CN[C@@H](Cc1ccc(Cl)cc1)C(=O)O; NMePhe(3-Me) = CN[C@@H](Cc1cccc(C)c1)C(=O)O; Bip = N[C@@H](Cc1ccc(-c2ccccc2)cc1)C(=O)O; Phe(3-Cl) = N[C@@H](Cc1cccc(Cl)c1)C(=O)O; Phe(4-Cl) = N[C@@H](Cc1ccc(Cl)cc1)C(=O)O; Phe(3-Me) = Cc1cccc(C[C@H](N)C(=O)O)c1; Phe(4-F) = N[C@@H](Cc1ccc(F)cc1)C(=O)O; Phe(4-Me) = Cc1ccc(C[C@H](N)C(=O)O)cc1; NMeF = CN[C@@H](Cc1ccccc1)C(=O)O; 3Pal = N[C@@H](Cc1cccnc1)C(=O)O; 4Pal = N[C@@H](Cc1ccncc1)C(=O)O; Cha = N[C@@H](CC1CCCCC1)C(=O)O; MeY = Methyl-L-tyrosine

Assays:
[1] = molecular target: T1, BMP4 (Homo sapiens, UniProt P12644); assay: BMP4 signal transduction inhibitory activity: SMAD1 phosphorylation by BMP4 stimulus, AlphaLISA SureFire, A549 cells; format: cell-based; settings: BMP4 0.2 nM stimulus
T1 sequence (P12644 293-408): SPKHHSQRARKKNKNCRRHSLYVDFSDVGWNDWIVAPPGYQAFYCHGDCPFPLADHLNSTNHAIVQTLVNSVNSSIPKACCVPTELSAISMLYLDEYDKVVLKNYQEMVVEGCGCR

[2] = molecular target: T2, BMP7 (Homo sapiens, UniProt P18075); assay: BMP7 signal transduction inhibitory activity: SMAD1 phosphorylation by BMP7 stimulus, A549 cells; format: cell-based; settings: BMP7 10 nM stimulus
T2 sequence (P18075 293-431): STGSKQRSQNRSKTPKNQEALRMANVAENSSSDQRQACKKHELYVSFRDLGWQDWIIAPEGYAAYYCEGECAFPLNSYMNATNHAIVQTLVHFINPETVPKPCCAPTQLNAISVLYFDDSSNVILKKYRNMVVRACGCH
Procedure, shortened: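 A549 cells were stimulated with 10 nM BMP7, and the read-out was SMAD1 phosphorylation. Peptides were tested at three concentrations spanning 1 to 1,000 nM, with sets depending on the peptide series. Some peptides were run in eight-point 1/3 dilutions starting from 100 nM or 1,000 nM, with recombinant human Noggin as positive control at matching concentrations.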

[3] = peptide conc. in assay 2, 20, 200 nM
[4] = peptide conc. in assay 10, 30, 90 nM

Row | Substance | aLISA BMP4 (0.2 nM) % inh [1, 3] | aLISA BMP7 (10 nM) % inh [2, 4] | aLISA BMP4 (0.2 nM) % inh ([1]; peptide conc. in assay 0.2, 2, 20 nM) | aLISA BMP7 (10 nM) % inh ([2]; peptide conc. in assay 1, 10, 100 nM)
1 | 375 ([Phe(4-Me)]G[NMeF]G[Bip]GDD[Cha]A[NMeF]LHCG-NH2; not fully specified) [compound 375] | B (showed less than 30% of inhibitory activity in 20 nM-addition zone and showed 30% or more of inhibitory activity in 200 nM-addition zone) | F (showed less than 30% of inhibitory activity in 10 nM-addition zone and showed 30% or more of inhibitory activity in 30 nM-addition zone) |  | 
2 | 376 (FG[NMeF]G[3Pal]GDD[Cha]A[NMeF]LHCG-NH2; not fully specified) [compound 376] | ND (the inhibitory activity was less than 30% at the maximum concentration evaluated) | G (showed less than 30% of inhibitory activity in 30 nM-addition zone and showed 30% or more of inhibitory activity in 90 nM-addition zone) |  | 
3 | 377 (FG[NMeF]G[4Pal]GDD[Cha]A[NMeF]LHCG-NH2; not fully specified) [compound 377] | ND (the inhibitory activity was less than 30% at the maximum concentration evaluated) | F (showed less than 30% of inhibitory activity in 10 nM-addition zone and showed 30% or more of inhibitory activity in 30 nM-addition zone) |  | 
4 | 378 (FG[NMeF]G[Phe(4-F)]GDD[Cha]A[NMeF]LHCG-NH2; not fully specified) [compound 378] | ND (the inhibitory activity was less than 30% at the maximum concentration evaluated) | F (showed less than 30% of inhibitory activity in 10 nM-addition zone and showed 30% or more of inhibitory activity in 30 nM-addition zone) |  | 
5 | 379 (FG[NMeF]G[Phe(3-Cl)]GDD[Cha]A[NMeF]LHCG-NH2; not fully specified) [compound 379] | ND (the inhibitory activity was less than 30% at the maximum concentration evaluated) | G (showed less than 30% of inhibitory activity in 30 nM-addition zone and showed 30% or more of inhibitory activity in 90 nM-addition zone) |  | 
6 | 380 (FG[NMeF]G[Phe(4-Cl)]GDD[Cha]A[NMeF]LHCG-NH2; not fully specified) [compound 380] | B (showed less than 30% of inhibitory activity in 20 nM-addition zone and showed 30% or more of inhibitory activity in 200 nM-addition zone) | F (showed less than 30% of inhibitory activity in 10 nM-addition zone and showed 30% or more of inhibitory activity in 30 nM-addition zone) |  | 
7 | 381 (FG[NMeF]G[Phe(3-Me)]GDD[Cha]A[NMeF]LHCG-NH2; not fully specified) [compound 381] | ND (the inhibitory activity was less than 30% at the maximum concentration evaluated) | G (showed less than 30% of inhibitory activity in 30 nM-addition zone and showed 30% or more of inhibitory activity in 90 nM-addition zone) |  | 
8 | 382 (FG[NMeF]G[Phe(4-Me)]GDD[Cha]A[NMeF]LHCG-NH2; not fully specified) [compound 382] | ND (the inhibitory activity was less than 30% at the maximum concentration evaluated) | G (showed less than 30% of inhibitory activity in 30 nM-addition zone and showed 30% or more of inhibitory activity in 90 nM-addition zone) |  | 
9 | 383 (FG[NMeF]GYGDD[Cha]A[NMeF]LHCG-NH2; not fully specified) [compound 383] | ND (the inhibitory activity was less than 30% at the maximum concentration evaluated) | F (showed less than 30% of inhibitory activity in 10 nM-addition zone and showed 30% or more of inhibitory activity in 30 nM-addition zone) |  | 
10 | 384 (FG[NMePhe(3-Cl)]G[Bip]GDD[Cha]A[NMeF]LHCG-NH2; not fully specified) [compound 384] | B (showed less than 30% of inhibitory activity in 20 nM-addition zone and showed 30% or more of inhibitory activity in 200 nM-addition zone) | E (showed 30% or more of inhibitory activity in 10 nM-addition zone) |  | 
11 | 385 (FG[NMePhe(4-Cl)]G[Bip]GDD[Cha]A[NMeF]LHCG-NH2; not fully specified) [compound 385] | B (showed less than 30% of inhibitory activity in 20 nM-addition zone and showed 30% or more of inhibitory activity in 200 nM-addition zone) | F (showed less than 30% of inhibitory activity in 10 nM-addition zone and showed 30% or more of inhibitory activity in 30 nM-addition zone) |  | 
12 | 386 (FG[NMePhe(3-Me)]G[Bip]GDD[Cha]A[NMeF]LHCG-NH2; not fully specified) [compound 386] | B (showed less than 30% of inhibitory activity in 20 nM-addition zone and showed 30% or more of inhibitory activity in 200 nM-addition zone) | F (showed less than 30% of inhibitory activity in 10 nM-addition zone and showed 30% or more of inhibitory activity in 30 nM-addition zone) |  | 
13 | 387 (FG[MeY]G[Bip]GDD[Cha]A[NMeF]LHCG-NH2; not fully specified) [compound 387] | A (showed less than 30% of inhibitory activity in 2 nM-peptide-addition zone and showed 30% or more of inhibitory activity in 20 nM-addition zone) | F (showed less than 30% of inhibitory activity in 10 nM-addition zone and showed 30% or more of inhibitory activity in 30 nM-addition zone) |  | 
14 | 388 (FG[NMeF]G[Bip]GDD[Cha]A[NMePhe(3-Cl)]LHCG-NH2; not fully specified) [compound 388] | B (showed less than 30% of inhibitory activity in 20 nM-addition zone and showed 30% or more of inhibitory activity in 200 nM-addition zone) | E (showed 30% or more of inhibitory activity in 10 nM-addition zone) |  | 
15 | 389 (FG[NMeF]G[Bip]GDD[Cha]A[NMePhe(4-Cl)]LHCG-NH2; not fully specified) [compound 389] | B (showed less than 30% of inhibitory activity in 20 nM-addition zone and showed 30% or more of inhibitory activity in 200 nM-addition zone) | E (showed 30% or more of inhibitory activity in 10 nM-addition zone) |  | 
16 | 390 (FG[NMeF]G[Bip]GDD[Cha]A[NMePhe(3-Me)]LHCG-NH2) [compound 390] | B (showed less than 30% of inhibitory activity in 20 nM-addition zone and showed 30% or more of inhibitory activity in 200 nM-addition zone) | E (showed 30% or more of inhibitory activity in 10 nM-addition zone) |  | 
17 | 391 (FG[NMeF]G[Bip]GDD[Cha]AYLHCG-NH2; not fully specified (residue 11)) [compound 391] | A (showed less than 30% of inhibitory activity in 2 nM-peptide-addition zone and showed 30% or more of inhibitory activity in 20 nM-addition zone) | F (showed less than 30% of inhibitory activity in 10 nM-addition zone and showed 30% or more of inhibitory activity in 30 nM-addition zone) |  | 
18 | 392 ([Phe(4-F)]G[NMeF]G[Bip]GDD[Cha]A[NMeF]LHCG-NH2; not fully specified) [compound 392] |  |  | A (showed less than 30% of inhibitory activity in 2 nM-peptide-addition zone and showed 30% or more of inhibitory activity in 20 nM-addition zone) | D (showed less than 30% of inhibitory activity in 10 nM-addition zone and showed 30% or more of inhibitory activity in 100 nM-addition zone)
